The target of experiment [1] is T1, SLC34A2 peptide fragment (peptide 1) (human, biotinylated (site not stated)).
T1 construct: ELISA antigen captured on NeutrAvidin plates; also called SLC34A2 peptide immunogen
T1 peptide: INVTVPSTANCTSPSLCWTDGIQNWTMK
In words: ELISA, biotinylated antigen on NeutrAvidin plate, anti-human Fc-HRP. (In general: In an ELISA, binding on a coated surface is turned into a signal by an enzyme label.)

In experiment [2] the target is T2, ECL-mFc fusion protein (human SLC34A2 ECL2 fused to murine Fc) (human, biotinylated (site not stated)).
T2 construct: The range 234-362 is the ECL2 part counted on human SLC34A2; also called mECL2-Fc protein
T2 chain: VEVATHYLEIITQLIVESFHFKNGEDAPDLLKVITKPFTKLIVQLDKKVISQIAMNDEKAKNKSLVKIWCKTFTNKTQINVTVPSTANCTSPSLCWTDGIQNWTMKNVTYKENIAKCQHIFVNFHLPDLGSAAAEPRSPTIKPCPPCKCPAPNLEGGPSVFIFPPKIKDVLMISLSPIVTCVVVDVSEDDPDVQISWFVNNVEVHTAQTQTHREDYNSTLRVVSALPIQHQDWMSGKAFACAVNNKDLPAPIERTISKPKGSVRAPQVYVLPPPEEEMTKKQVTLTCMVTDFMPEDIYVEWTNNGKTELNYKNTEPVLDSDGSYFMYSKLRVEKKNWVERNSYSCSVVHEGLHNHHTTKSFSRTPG
The experiment is described as above.

Experiment [3] has as its target T3, Human Solute Carrier Family 34 Member 2 (SLC34A2) (human, UniProt O95436 1-690).
T3 construct: Endogenous on OVCAR-3 cells; engineered on 786-O cells in the CAR kinetics assay; also called NaPi2b; NPT2B
T3 sequence: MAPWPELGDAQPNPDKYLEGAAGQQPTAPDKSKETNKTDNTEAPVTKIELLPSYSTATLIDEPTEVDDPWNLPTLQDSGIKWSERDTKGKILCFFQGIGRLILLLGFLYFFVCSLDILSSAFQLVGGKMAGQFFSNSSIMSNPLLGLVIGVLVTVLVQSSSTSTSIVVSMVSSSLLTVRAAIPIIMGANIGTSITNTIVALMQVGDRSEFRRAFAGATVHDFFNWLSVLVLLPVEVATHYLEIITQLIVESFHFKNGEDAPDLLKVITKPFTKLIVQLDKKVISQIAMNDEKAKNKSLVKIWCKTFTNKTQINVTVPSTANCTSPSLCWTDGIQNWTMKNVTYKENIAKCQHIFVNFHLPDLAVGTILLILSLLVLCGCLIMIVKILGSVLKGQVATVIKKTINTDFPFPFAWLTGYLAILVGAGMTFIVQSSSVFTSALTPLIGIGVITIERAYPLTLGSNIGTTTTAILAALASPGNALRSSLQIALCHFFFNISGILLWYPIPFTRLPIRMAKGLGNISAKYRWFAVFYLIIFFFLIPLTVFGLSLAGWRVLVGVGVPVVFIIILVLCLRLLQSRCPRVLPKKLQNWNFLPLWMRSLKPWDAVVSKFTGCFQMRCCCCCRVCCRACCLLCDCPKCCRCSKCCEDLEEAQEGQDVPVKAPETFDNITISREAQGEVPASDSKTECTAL
Nature of the experiment: flow cytometry on OVCAR-3 cells (endogenous human SLC34A2), hIgG1/kappa, 8 five-fold dilutions from 133 nM.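 Also: binding read as geometric mean fluorescence intensity, with non-transfected HEK293 cells serving as the negative control.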 A general note: A flow cytometer gives signals particle by particle.

The values below come from patent US20250297255A1 (ARSENAL BIOSCIENCES, published 2025).

The EC50 is the concentration that produces a half-maximal response.

B1: SLC34A2 Ab 4 (antibody, human IgG1, kappa, V domains shown)
VH: QVQLLESGGGLVQPGGSLRLSCAASGFTFSSYAMNWVRQAPGKGLEWVSAISGGVGNTYYADSVKGRFTISRDNSKNTLYLQMNSLRAEDTAVYYCTKDGPLWGNYFDYWGRGTLVTVSS
VL: EIVLTQSPSSLSASVGDRVTITCRASQGISNYLAWYQQKPGKVPNLLIYTASTLQSGVPSRFSGSGSGTDFTLTISSLQPEDVATYYCQKYNSAPFTFGPGTKVDIKR
notes: recombinant hIgG1/kappa from TAP products in Expi293
For the molecule B1, the results for the binding result in experiment [1] and in experiment [2] were “no binding” and “binds”, respectively. Besides, the EC50 in experiment [3] turned out to be 5 nM. The “Max Signal by flow cytometry” value in experiment [3] stood at 277.

B2: SLC34A2 Ab 5 (antibody, human IgG1, kappa, V domains shown)
VH: QVQLQESGPGLVKPSETLSLTCSVSGGSISSSSYYWGWIRQPPGKGLEWIGSIDYSGSTYYNPSLKSRVTISIDTSKNQFSLRLSSVTAAEKAVYYCARHGRGTIGYFDYWGQGTLVTVSS
VL: DIQMTQSPSSLSASVGDRVTITCRASQSISSYLNWYQQKPGKAPKLLIYAASSLLTGVPSRFTGSGSGTDFTLTISSLQPEDFGTYYCQQSYSPPLTFGGGTKVEIKR
notes: recombinant hIgG1/kappa
As for B2, the binding result in experiment [1] is “no binding”. For the same molecule, in experiment [3], a half-maximal response (EC50) required 5 nM and the “Max Signal by flow cytometry” value was found to be 271.

B3: SLC34A2 Ab 12 (antibody, V domains shown)
VH: QVQLQESGPGLVKPSETLSLTCTVSGGSISSSSYYRGWIRQPPGKGLEWIGSIYYSGSTYYNPSLKSRVTISVDTSKNQFSLKLSSVTAADTAVYYCARHPRGSYGANFDYWGQGTLVTVSS
VL: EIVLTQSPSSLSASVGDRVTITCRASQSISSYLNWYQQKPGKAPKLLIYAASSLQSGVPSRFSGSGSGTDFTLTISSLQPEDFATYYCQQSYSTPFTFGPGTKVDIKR
notes: as for B1
With B3, in experiment [1], the binding result was “binds”. In addition, the binding result in experiment [2] is given as “binds”. For the same molecule, in experiment [3], the EC50 is 5 nM and the “Max Signal by flow cytometry” value was 305.

B4: SLC34A2 Ab 6 (antibody, human IgG1, kappa, V domains shown)
VH: QVQLLESGGGLVQPGGSLRLSCAASGFTFSSSAMAWVRQAPGKGLEWVSAISSSGDNTYYADSVKGRFTISRDTSKNTLSLQMSSLRAEDTAIYYCAKQGTNWGLYFDYWGQGTLVTVSS
VL: DIQMTQSPSSLSASVGDRVTIACRASQVISNYLAWYQQKPGKVPKLLIYVASTLQSGVPSRFSGSGSGTDFTLTISSLQPEDVATYYCQNYNSAPWTFGQGTKLEIKR
notes: recombinant hIgG1/kappa
Turning to B4, the binding result in experiment [1] is given as “no binding”. Besides, in experiment [3], the EC50 worked out at 6 nM and the “Max Signal by flow cytometry” value is 211.

B5: SLC34A2 Ab 13 (antibody, human IgG1, kappa, V domains shown)
VH: QVQLVESGGGLVQPGRSLRLSCIGSGFTFGEYAMSWVRQAPGKGLEWVGFIRTKPYGGTTEFAASVKGRFTMSRDDSKSIAYLEMNSLKTEDTAVYYCTLIPALRFLEWLPWGQGTLVTVSS
VL: EIVLTQSPSSLSASVGDRVTVTCRANQDINNYLAWYQQTPGKVPKLLIYAASTLQSGVPSRFSGSGSGTDFTLTISSLQPEDVATYYCQNYYSVPWTFGQGTKLEIKR
notes: as for B1
On to B5, for which the binding result in experiment [1] is “binds”. Further, in experiment [2], the binding result is on record as “binds”. Moreover, in experiment [3], it took 41 nM to reach a half-maximal effect (EC50) and the “Max Signal by flow cytometry” value turned out to be 233.

B6: SLC34A2 Ab 7 (antibody, human IgG1, kappa, V domains shown)
VH: QVQLQESGPELVKPSETLSITCTVSGGSISSRSYYWGWIRQPPGKGLEWIGSIYYGGSTYYNPSLKSRVTISADTSKNQFSLKLNSVTAADTAVFYCVRHPAGYSTRWSAFDIWGQGTMVTVSS
VL: EIVLTQSPSSLSASVGDRVTITCRASQSISSYLNWYQQKPGRAPELLIYAASSLQSGVPSRFSGSGSGTDFTLTISSLQPEDFATYYCQQSFSSLTFGQGTRLEIKR
notes: as for B1
B6: the binding result in experiment [1] and in experiment [2] was “binds” throughout. The EC50 in experiment [3] came to 16 nM. The “Max Signal by flow cytometry” value in experiment [3] worked out at 278.

B7: SLC34A2 Ab 14 (antibody, human IgG1, kappa, V domains shown)
VH: QVQLQESGPGLVKPSETLSLTCTVSGGSVSSGSYYWSWIRQPPGKGLEWIGYIFYSGSTYYNPSLKSRVTISVDTSKNQFSLKLTSVTAADTAVYFCARWMTTVKGYFDYWGQGTLVTVSS
VL: EIVLTQSPDFQSVTPKESVTITCRASQSVGSGLHWYQQKPDQSPKLLIKYASQSFSGVPSRFSGSGSGTDFTLTINSLEAEDAATYYCLQSSSLPWTFGQGTKVEIKR
notes: recombinant hIgG1/kappa
As for B7, the binding result in experiment [1] and in experiment [2] was “binds” in each case. Besides, the EC50 in experiment [3] was found to be 9 nM. The “Max Signal by flow cytometry” value in experiment [3] came out at 288.

B8: SLC34A2 Ab 1 (antibody, human IgG1, kappa, V domains shown)
VH: QVQLQESGPGLVKPSETLSLTCTVSGGSVSSGNFYWSWIRQPPGKGLEWIGYIYYSGSTYYNPSLKSRVTISVDTSKNQFSLKLRSLTAADTAVYYCARWMTKVKGYFDYWGQGTLVTVSS
VL: EIVLTQSPDFQSVTPKEKVTITCRASQSVGSGLHWYQQKPDQSPKLLIKYASQSFSGVPSRFSGSGSGTDFTLTINSLEVEDAATFYCLQSSSLPWTFGQGTKVEIKR
notes: as for B1
As for B8, the binding result in experiment [1] and in experiment [2] was “binds” each time. Besides, the concentration giving a half-maximal response (EC50) in experiment [3] is 7 nM. The “Max Signal by flow cytometry” value in experiment [3] turned out to be 353.

B9: SLC34A2 Ab 2 (antibody, human IgG1, kappa, V domains shown)
VH: QVQLQESGPGLVKPSETLSLTCTVSGGSVSSGSYYWSWIRQAPGKGLEWIGYIYYSGSNYYNPSLKSRVTISVDTSKNQFSLKLRAVTAADTAVYYCARWMTTIKGYFDYWGQGTLVTVSS
VL: EIVLTQSPDFQSVTPKEKVTITCRASQSVGSGLHWYQQKPDQSPKLLIKYASQSFSGVPSRFSGSGSGTDFTLTINSLETEDAATYFCQQSSSLPWTFGQGTKVEIKR
notes: as for B1
As for B9, the binding result in experiment [1] is on record as “binds”. The binding result in experiment [2] is “binds”. Besides, in experiment [3], it took 7 nM to reach a half-maximal effect (EC50) and the “Max Signal by flow cytometry” value was 330.
